Paper PMC10281804, “The structural basis of the talin–KANK1 interaction that coordinates the actin and microtubule cytoskeletons at focal adhesions” (Open Biology, 2023)

Tests used:
GFP–talin1–cBAK = assay: Mitochondrial targeting system (MTS): recruitment of mCherry–KANK1 by GFP–talin1–cBAK; assay type: cell-based; details: NIH3T3 fibroblasts and HEK293T cells; fluorescence microscopy colocalization
Description: To examine the effect of these KANK1 mutations on talin interactions in cells, we next used a mitochondrial targeting system (MTS) which we previously used to screen for defined protein–protein interactions. In this assay, one protein is fused to a small peptide sequence from the pro-apoptotic protein BAK (cBAK) which leads to its insertion into the outer membrane of mitochondria. Proteins that interact with the cBAK-tagged protein will get recruited to mitochondria, and this recruitment can be verified either by visualizing colocalization using fluorescence microscopy (figure 4a) or by purification of mitochondria followed by detection of co-precipitates using biochemistry (figure 4b,c). […] To confirm that the interaction was meditated by the R7 domain, we performed the colocalization assays with truncated talin constructs.
(§1) NIH3T3 mouse fibroblasts and HEK293T human epithelial cells were obtained from the American Type Culture Collection (ATCC). The vinculin null and WT mouse embryonic fibroblasts (MEFs) originate from the Eileen Adamson laboratory. All cells were maintained in Dulbecco's Modified Eagle Medium (DMEM; Sigma) supplemented with 10% fetal bovine serum (FBS, Gibco), 1% L-glutamine (Sigma) and 1% non-essential amino acids (Sigma). Talin1&2 null cells were cultured in DMEM F-12 (Gibco) supplemented with 10% FBS, 1% L-glutamine, 1% non-essential amino acids and […] HEPES (Sigma). All cells were cultured at 37̊C supplied with 5% CO2 and 95% humidity. Transient transfections were performed using Lipofectamine LTX with Plus Reagent (Invitrogen) to NIH3T3 cells, Lipofectamine 2000 (Invitrogen) to talin null cells, and jetPRIME reagent (Polyplus) to MEFs and HEK293T cells, as per the manufacturer's instructions.
(§2) For the construction of mCherry-KANK1, human FL-KANK1 (generous donation from the Bershadsky laboratory) cDNA was tagged in the C-terminal site with pmCherry (Clontech) by restriction digestion. Point mutations (L41E, L43E, F45E and V49E) were introduced in mCherry-KANK1 by site-directed mutagenesis (NEB) using the following oligonucleotides: […]ga[…] and […] for L41E; […]ga[…] and […] for L43E; […]gaa[…] and […] for F45E; […]a[…] and […] for V49E. Generation of GFP–talin1–cBAK and GFP–cBAK was as previously described. G1404L was introduced on GFP–talin1–cBAK by the method above using […]ctt[…] and […]. To generate GFP–talin1 R7DD–cBAK and GFP–talin1 R9DD-cBAK constructs, R7-DD (3555 bp) and R9-DD (2661 bp) were amplified from talin-1 (Mus musculus). Restriction digestion with XhoI and HindIII FastDigest enzymes (Thermo Scientific) was used to linearize GFP–cBAK. DNA assembly was performed to join R7-DD and R9-DD to linearized the GFP–cBAK vector using the NEBuilder HiFi DNA assembly kit (NEB).
(§3) Images of fixed samples in PBS were acquired at room temperature using an Olympus IX83 inverted microscope equipped with a 60×/1.42 PlanApo N oil objective and a QImaging Retiga R6 CCD camera, controlled by Metamorph software. Samples were illuminated using LEDs (UV/Cyan/Green-Yellow/Red, Lumencor) for fluorescence excitation; a Sedat filter set (DAPI/FITC/TRITC/Cy5, Chroma, 89000) was used.

talin1-cBAK = assay: Mitochondria pulldown of KANK1 WT or point mutations, Western blot; assay type: cell-based; details: HEK293T cells; mitochondrial pulldown, triplicate experiments, normalized to WT; *** p < 0.001 (one-way ANOVA, Dunnett's)
Description: as §2
For fixed cell imaging, cells were cultured in glass-bottom dishes (IBL) coated with bovine fibronectin (Sigma) at a final concentration of 10 µg ml^−1. Samples were fixed in 4% paraformaldehyde (PFA, Sigma), and warmed to 37̊C, for 15 min before being washed three times with PBS. For immunofluorescence staining, samples were permeabilized at room temperature with 0.5% Triton X-100 (Sigma) for 5 min before being washed three times. […]
Protein samples were extracted from cells and mitochondria, respectively, using RIPA lysis buffer (Chromotek) supplemented with protease inhibitors. […] Primary antibody signal was detected using goat anti-mouse IgG conjugated to IRDye 680RD (ab216776, abcam) and goat anti-rabbit IgG conjugated to IRDye 800CW (ab216773, abcam) secondary antibodies, diluted 1 : 15 000, imaged with an Odyssey CLx imaging system (LI-CO Biosciences). […]

[1] = test system: focal adhesions of NIH3T3 fibroblasts; assay: KANK1 localization to focal adhesions (co-expression with GFP–paxillin); assay type: cell-based, mouse; details: NIH3T3 fibroblasts co-expressing GFP–paxillin
Experimental: as §1, §2, §3

Molecule	recruitment of mCherry–KANK1 to mitochondria by GFP–talin1–cBAK (GFP–talin1–cBAK)	relative KANK1 binding to talin1-cBAK (%) (talin1-cBAK)	localization of mCherry–KANK1 to FAs / FA belt [1]
KANK1 L41E: mCherry-KANK1 with point mutation L41E (protein, left off: mCherry, C-terminal, kept) MAHTTKVNGSASGKAGDILSGDQDKEQKDPYFVETPYGYQEDLDFLKYVDDIQKGNTIKRLNIQKRRKPSVPCPEPRTTSGQQGIWTSTESLSSSNSDDNKQCPNFLIARSQVTSTPISKPPPPLETSLPFLTIPENRQLPPPSPQLPKHNLHVTKTLMETRRRLEQERATMQMTPGEFRRPRLASFGGMGTTSSLPSFVGSGNHNPAKHQLQNGYQGNGDYGSYAPAAPTTSSMGSSIRHSPLSSGISTPVTNVSPMHLQHIREQMAIALKRLKELEEQVRTIPVLQVKISVLQEEKRQLVSQLKNQRAASQINVCGVRKRSYSAGNASQLEQLSRARRSGGELYIDYEEEEMETVEQSTQRIKEFRQLTADMQALEQKIQDSSCEASSELRENGECRSVAVGAEENMNDIVVYHRGSRSCKDAAVGTLVEMRNCGVSVTEAMLGVMTEADKEIELQQQTIESLKEKIYRLEVQLRETTHDREMTKLKQELQAAGSRKKVDKATMAQPLVFSKVVEAVVQTRDQMVGSHMDLVDTCVGTSVETNSVGISCQPECKNKVVGPELPMNWWIVKERVEMHDRCAGRSVEMCDKSVSVEVSVCETGSNTEESVNDLTLLKTNLNLKEVRSIGCGDCSVDVTVCSPKECASRGVNTEAVSQVEAAVMAVPRTADQDTSTDLEQVHQFTNTETATLIESCTNTCLSTLDKQTSTQTVETRTVAVGEGRVKDINSSTKTRSIGVGTLLSGHSGFDRPSAVKTKESGVGQININDNYLVGLKMRTIACGPPQLTVGLTASRRSVGVGDDPVGESLENPQPQAPLGMMTGLDHYIERIQKLLAEQQTLLAENYSELAEAFGEPHSQMGSLNSQLISTLSSINSVMKSASTEELRNPDFQKTSLGKITGNYLGYTCKCGGLQSGSPLSSQTSQPEQEVGTSEGKPISSLDAFPTQEGTLSPVNLTDDQIAAGLYACTNNESTLKSIMKKKDGNKDSNGAKKNLQFVGINGGYETTSSDDSSSDESSSSESDDECDVIEYPLEEEEEEEDEDTRGMAEGHHAVNIEGLKSARVEDEMQVQECEPEKVEIRERYELSEKMLSACNLLKNTINDPKALTSKDMRFCLNTLQHEWFRVSSQKSAIPAMVGDYIAAFEAISPDVLRYVINLADGNGNTALHYSVSHSNFEIVKLLLDADVCNVDHQNKAGYTPIMLAALAAVEAEKDMRIVEELFGCGDVNAKASQAGQTALMLAVSHGRIDMVKGLLACGADVNIQDDEGSTALMCASEHGHVEIVKLLLAQPGCNGHLEDNDGSTALSIALEAGHKDIAVLLYAHVNFAKAQSPGTPRLGRKTSPGPTHRGSFD	abolishes GFP–talin–cBAK mediated recruitment	not detected	abolished localization to FAs and the FA belt
KANK1 L43E: mCherry-KANK1 with point mutation L43E (protein, left off: mCherry, C-terminal, kept) MAHTTKVNGSASGKAGDILSGDQDKEQKDPYFVETPYGYQLDEDFLKYVDDIQKGNTIKRLNIQKRRKPSVPCPEPRTTSGQQGIWTSTESLSSSNSDDNKQCPNFLIARSQVTSTPISKPPPPLETSLPFLTIPENRQLPPPSPQLPKHNLHVTKTLMETRRRLEQERATMQMTPGEFRRPRLASFGGMGTTSSLPSFVGSGNHNPAKHQLQNGYQGNGDYGSYAPAAPTTSSMGSSIRHSPLSSGISTPVTNVSPMHLQHIREQMAIALKRLKELEEQVRTIPVLQVKISVLQEEKRQLVSQLKNQRAASQINVCGVRKRSYSAGNASQLEQLSRARRSGGELYIDYEEEEMETVEQSTQRIKEFRQLTADMQALEQKIQDSSCEASSELRENGECRSVAVGAEENMNDIVVYHRGSRSCKDAAVGTLVEMRNCGVSVTEAMLGVMTEADKEIELQQQTIESLKEKIYRLEVQLRETTHDREMTKLKQELQAAGSRKKVDKATMAQPLVFSKVVEAVVQTRDQMVGSHMDLVDTCVGTSVETNSVGISCQPECKNKVVGPELPMNWWIVKERVEMHDRCAGRSVEMCDKSVSVEVSVCETGSNTEESVNDLTLLKTNLNLKEVRSIGCGDCSVDVTVCSPKECASRGVNTEAVSQVEAAVMAVPRTADQDTSTDLEQVHQFTNTETATLIESCTNTCLSTLDKQTSTQTVETRTVAVGEGRVKDINSSTKTRSIGVGTLLSGHSGFDRPSAVKTKESGVGQININDNYLVGLKMRTIACGPPQLTVGLTASRRSVGVGDDPVGESLENPQPQAPLGMMTGLDHYIERIQKLLAEQQTLLAENYSELAEAFGEPHSQMGSLNSQLISTLSSINSVMKSASTEELRNPDFQKTSLGKITGNYLGYTCKCGGLQSGSPLSSQTSQPEQEVGTSEGKPISSLDAFPTQEGTLSPVNLTDDQIAAGLYACTNNESTLKSIMKKKDGNKDSNGAKKNLQFVGINGGYETTSSDDSSSDESSSSESDDECDVIEYPLEEEEEEEDEDTRGMAEGHHAVNIEGLKSARVEDEMQVQECEPEKVEIRERYELSEKMLSACNLLKNTINDPKALTSKDMRFCLNTLQHEWFRVSSQKSAIPAMVGDYIAAFEAISPDVLRYVINLADGNGNTALHYSVSHSNFEIVKLLLDADVCNVDHQNKAGYTPIMLAALAAVEAEKDMRIVEELFGCGDVNAKASQAGQTALMLAVSHGRIDMVKGLLACGADVNIQDDEGSTALMCASEHGHVEIVKLLLAQPGCNGHLEDNDGSTALSIALEAGHKDIAVLLYAHVNFAKAQSPGTPRLGRKTSPGPTHRGSFD	abolishes GFP–talin–cBAK mediated recruitment	not detected	abolished localization to FAs and the FA belt
